Residue numbers refer to the chain shown, from its start. The star is where a group is joined. Palmitoyl = CCCCCCCCCCCCCCCC(=O)*
Columns and labels:
[1] = biological target: T1, PAR1 S309P mutant (human, UniProt P25116 42-425); assay: cell-based or functional assay
T1 sequence (looked up): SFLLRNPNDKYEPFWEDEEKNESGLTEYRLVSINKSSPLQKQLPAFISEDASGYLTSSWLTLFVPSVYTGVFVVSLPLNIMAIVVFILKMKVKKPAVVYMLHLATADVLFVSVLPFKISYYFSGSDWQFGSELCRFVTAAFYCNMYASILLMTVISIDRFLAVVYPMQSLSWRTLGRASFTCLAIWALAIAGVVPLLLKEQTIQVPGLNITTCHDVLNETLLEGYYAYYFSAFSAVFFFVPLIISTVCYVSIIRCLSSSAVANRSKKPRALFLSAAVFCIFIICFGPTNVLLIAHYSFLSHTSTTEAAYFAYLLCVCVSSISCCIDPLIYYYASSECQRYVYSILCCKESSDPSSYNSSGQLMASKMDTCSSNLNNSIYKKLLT

[2] = biological target: T2, murine PAR4 (mouse, UniProt O88634 60-396); assay: cell-based or functional assay
T2 sequence (looked up): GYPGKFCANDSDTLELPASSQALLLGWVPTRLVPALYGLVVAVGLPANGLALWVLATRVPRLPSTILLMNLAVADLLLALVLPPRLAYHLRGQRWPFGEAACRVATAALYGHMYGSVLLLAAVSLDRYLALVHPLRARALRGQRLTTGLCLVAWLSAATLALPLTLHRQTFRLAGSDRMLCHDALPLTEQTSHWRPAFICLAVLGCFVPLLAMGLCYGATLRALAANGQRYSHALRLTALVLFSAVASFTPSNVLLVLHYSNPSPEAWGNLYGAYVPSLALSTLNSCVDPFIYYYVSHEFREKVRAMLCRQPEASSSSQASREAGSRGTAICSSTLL

[3] = biological target: PAR1 delta377 mutant (UniProt P25116)
[4] = biological target: human glucagon-like peptide-1 receptor (GLP-1R) (human, UniProt P43220 24-463); assay: cell-based or functional assay
[5] = biological target: T3, human PAR4 (human, UniProt Q96RI0 48-385); assay: cell-based or functional assay
T3 sequence (looked up): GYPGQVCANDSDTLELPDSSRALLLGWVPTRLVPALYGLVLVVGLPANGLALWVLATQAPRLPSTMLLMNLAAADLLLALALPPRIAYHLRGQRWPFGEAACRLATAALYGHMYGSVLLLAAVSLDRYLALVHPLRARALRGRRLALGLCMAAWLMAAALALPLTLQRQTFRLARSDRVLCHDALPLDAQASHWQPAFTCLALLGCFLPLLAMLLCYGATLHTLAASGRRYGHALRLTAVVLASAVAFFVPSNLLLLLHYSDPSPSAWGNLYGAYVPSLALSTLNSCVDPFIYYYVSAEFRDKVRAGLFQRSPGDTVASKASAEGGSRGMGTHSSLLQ

[6] = biological target: T4, human cholecystokinin B receptor (CCKB) (human, UniProt P32239 1-447); assay: cell-based or functional assay
T4 sequence (looked up): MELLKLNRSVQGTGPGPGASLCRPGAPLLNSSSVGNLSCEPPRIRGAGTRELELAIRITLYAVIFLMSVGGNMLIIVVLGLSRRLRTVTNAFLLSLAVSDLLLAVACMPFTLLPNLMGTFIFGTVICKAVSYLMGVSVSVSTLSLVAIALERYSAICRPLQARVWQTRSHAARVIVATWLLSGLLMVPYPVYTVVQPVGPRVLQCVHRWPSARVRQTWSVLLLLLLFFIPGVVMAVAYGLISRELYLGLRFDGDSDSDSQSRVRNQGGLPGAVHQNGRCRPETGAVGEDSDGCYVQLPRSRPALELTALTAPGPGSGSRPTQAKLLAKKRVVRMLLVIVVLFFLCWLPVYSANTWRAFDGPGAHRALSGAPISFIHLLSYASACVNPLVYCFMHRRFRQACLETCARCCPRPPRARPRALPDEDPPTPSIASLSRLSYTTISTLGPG

[7] = biological target: T4, human cholecystokinin B receptor (CCKB); assay: cell-based or functional assay; remark: listed apart in the source
[8] = biological target: T3, human PAR4; assay: cell-based or functional assay; remark: listed apart in the source
[9] = biological target: T5, human PAR1 (human, UniProt P25116 42-425); assay: cell-based or functional assay
T5 sequence (looked up): T1 sequence (looked up) with P268S

[10] = biological target: T5, human PAR1; assay: cell-based or functional assay; remark: listed apart in the source
[11] = biological target: T6, human PAR2 (human, UniProt P55085 37-397); assay: cell-based or functional assay
T6 sequence (looked up): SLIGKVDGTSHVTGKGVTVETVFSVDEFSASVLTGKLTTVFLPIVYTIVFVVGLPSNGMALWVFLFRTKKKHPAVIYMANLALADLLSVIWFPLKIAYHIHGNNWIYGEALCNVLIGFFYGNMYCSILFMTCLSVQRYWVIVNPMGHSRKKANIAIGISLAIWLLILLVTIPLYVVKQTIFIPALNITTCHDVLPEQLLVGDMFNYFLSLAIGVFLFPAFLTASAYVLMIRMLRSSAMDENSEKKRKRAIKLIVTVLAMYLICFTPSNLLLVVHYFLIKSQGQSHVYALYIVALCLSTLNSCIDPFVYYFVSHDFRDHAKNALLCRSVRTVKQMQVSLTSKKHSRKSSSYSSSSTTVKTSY

Molecule: thrombin (enzyme)
- loss of potency against wild type PAR1 (InsP) [1]: 17 fold
- EC50, aggregation of murine platelets by thrombin [2]: 0.6 nM

Molecule: thrombin
- reduction of efficacy against wild type PAR1 (PLC-beta, InsP) [3]: Efficacy is reduced by 2-3 fold for the two PAR1 agonists

B1: G1pal-15 pepducin (peptide)
peptide: Palmitoyl-ANLMSKTDIKCRLAF-NH2
SMILES: CCCCCCCCCCCCCCCC(=O)N[C@@H](C)C(=O)N[C@@H](CC(N)=O)C(=O)N[C@@H](CC(C)C)C(=O)N[C@@H](CCSC)C(=O)N[C@@H](CO)C(=O)N[C@@H](CCCCN)C(=O)N[C@H](C(=O)N[C@@H](CC(=O)O)C(=O)N[C@H](C(=O)N[C@@H](CCCCN)C(=O)N[C@@H](CS)C(=O)N[C@@H](CCCNC(=N)N)C(=O)N[C@@H](CC(C)C)C(=O)N[C@@H](C)C(=O)N[C@@H](Cc1ccccc1)C(N)=O)[C@@H](C)CC)[C@@H](C)O
- cAMP in Cos7 fibroblasts, fold activation at 1 µM pepducin [4]: 1.7 fold

B2: P4pal-15F (Pal-HTLAASGRRYGHALF) (peptide)
peptide: Palmitoyl-HTLAASGRRYGHALF-NH2
SMILES: CCCCCCCCCCCCCCCC(=O)N[C@@H](Cc1c[nH]cn1)C(=O)N[C@H](C(=O)N[C@@H](CC(C)C)C(=O)N[C@@H](C)C(=O)N[C@@H](C)C(=O)N[C@@H](CO)C(=O)NCC(=O)N[C@@H](CCCNC(=N)N)C(=O)N[C@@H](CCCNC(=N)N)C(=O)N[C@@H](Cc1ccc(O)cc1)C(=O)NCC(=O)N[C@@H](Cc1c[nH]cn1)C(=O)N[C@@H](C)C(=O)N[C@@H](CC(C)C)C(=O)N[C@@H](Cc1ccccc1)C(N)=O)[C@@H](C)O
- Antagonist IC50 (InsP formation, against 10 nM thrombin) [5]: > 2000 nM

B3: Bpal-18F (Pal-SGSRPTQAKLLAKKRVVF) (peptide)
peptide: Palmitoyl-SGSRPTQAKLLAKKRVVF-NH2
SMILES: CCCCCCCCCCCCCCCC(=O)N[C@@H](CO)C(=O)NCC(=O)N[C@@H](CO)C(=O)N[C@@H](CCCNC(=N)N)C(=O)N1CCC[C@H]1C(=O)N[C@H](C(=O)N[C@@H](CCC(N)=O)C(=O)N[C@@H](C)C(=O)N[C@@H](CCCCN)C(=O)N[C@@H](CC(C)C)C(=O)N[C@@H](CC(C)C)C(=O)N[C@@H](C)C(=O)N[C@@H](CCCCN)C(=O)N[C@@H](CCCCN)C(=O)N[C@@H](CCCNC(=N)N)C(=O)N[C@H](C(=O)N[C@H](C(=O)N[C@@H](Cc1ccccc1)C(N)=O)C(C)C)C(C)C)[C@@H](C)O
- improvement of potency against the wild-type CCKB peptide [6]: 15 fold
- Agonist EC50 (activating phase, InsP formation) [7]: 100 nM
- Agonist Efficacy (% of full response to 300 nM CCK-8) [7]: 13%
- Agonist IC50 (inhibitory phase, InsP formation) [7]: 1000 nM

B4: P4pal-15 (Pal-HTLAASGRRYGHALR) (peptide)
peptide: Palmitoyl-HTLAASGRRYGHALR-NH2
SMILES: CCCCCCCCCCCCCCCC(=O)N[C@@H](Cc1c[nH]cn1)C(=O)N[C@H](C(=O)N[C@@H](CC(C)C)C(=O)N[C@@H](C)C(=O)N[C@@H](C)C(=O)N[C@@H](CO)C(=O)NCC(=O)N[C@@H](CCCNC(=N)N)C(=O)N[C@@H](CCCNC(=N)N)C(=O)N[C@@H](Cc1ccc(O)cc1)C(=O)NCC(=O)N[C@@H](Cc1c[nH]cn1)C(=O)N[C@@H](C)C(=O)N[C@@H](CC(C)C)C(=O)N[C@@H](CCCNC(=N)N)C(N)=O)[C@@H](C)O
- IC50, inhibition of platelet aggregation to 200 micromolar AYPGKF [8]: 600 nM
- Antagonist IC50 (InsP formation, against 10 nM thrombin) [5]: 3000 nM

B5: P1pal-19Q (Pal-RCLSSSAVANQSQQSQALF) (peptide)
peptide: Palmitoyl-RCLSSSAVANQSQQSQALF-NH2
SMILES: CCCCCCCCCCCCCCCC(=O)N[C@@H](CCCNC(=N)N)C(=O)N[C@@H](CS)C(=O)N[C@@H](CC(C)C)C(=O)N[C@@H](CO)C(=O)N[C@@H](CO)C(=O)N[C@@H](CO)C(=O)N[C@@H](C)C(=O)N[C@H](C(=O)N[C@@H](C)C(=O)N[C@@H](CC(N)=O)C(=O)N[C@@H](CCC(N)=O)C(=O)N[C@@H](CO)C(=O)N[C@@H](CCC(N)=O)C(=O)N[C@@H](CCC(N)=O)C(=O)N[C@@H](CO)C(=O)N[C@@H](CCC(N)=O)C(=O)N[C@@H](C)C(=O)N[C@@H](CC(C)C)C(=O)N[C@@H](Cc1ccccc1)C(N)=O)C(C)C
- loss in efficacy, platelet aggregation or InsP in PAR1-Rat1 cells [9]: 2 fold
- Agonist EC50 (activating phase, InsP formation) [10]: 650 nM
- Agonist Efficacy (% of full response to extracellular agonist) [10]: 46%
- Agonist IC50 (inhibitory phase, InsP formation) [10]: 30000 nM

B6: P4pal-10 (Pal-SGRRYGHALR) (peptide)
peptide: Palmitoyl-SGRRYGHALR-NH2
SMILES: CCCCCCCCCCCCCCCC(=O)N[C@@H](CO)C(=O)NCC(=O)N[C@@H](CCCNC(=N)N)C(=O)N[C@@H](CCCNC(=N)N)C(=O)N[C@@H](Cc1ccc(O)cc1)C(=O)NCC(=O)N[C@@H](Cc1c[nH]cn1)C(=O)N[C@@H](C)C(=O)N[C@@H](CC(C)C)C(=O)N[C@@H](CCCNC(=N)N)C(N)=O
- inhibition of the rate of murine platelet aggregation to 3 nM thrombin, 3 µM pepducin [2]: 7 fold
- IC50, inhibition of platelet aggregation to AYPGKF [8]: 500 to 1000 nM

Molecule: SLIGKV
- InsP formation, fold-stimulation by 100 micromolar SLIGKV (P2pal-21 experiment) [11]: 3.1 fold

B7: P1pal-19 (Pal-RCLSSSAVANRSKKSRALF) (peptide)
peptide: Palmitoyl-RCLSSSAVANRSKKSRALF-NH2
SMILES: CCCCCCCCCCCCCCCC(=O)N[C@@H](CCCNC(=N)N)C(=O)N[C@@H](CS)C(=O)N[C@@H](CC(C)C)C(=O)N[C@@H](CO)C(=O)N[C@@H](CO)C(=O)N[C@@H](CO)C(=O)N[C@@H](C)C(=O)N[C@H](C(=O)N[C@@H](C)C(=O)N[C@@H](CC(N)=O)C(=O)N[C@@H](CCCNC(=N)N)C(=O)N[C@@H](CO)C(=O)N[C@@H](CCCCN)C(=O)N[C@@H](CCCCN)C(=O)N[C@@H](CO)C(=O)N[C@@H](CCCNC(=N)N)C(=O)N[C@@H](C)C(=O)N[C@@H](CC(C)C)C(=O)N[C@@H](Cc1ccccc1)C(N)=O)C(C)C
- platelet aggregation EC50 [9]: 8000 nM
- loss in efficacy against wild type PAR1 (InsP) [1]: 4.3 fold
- loss in potency against wild type PAR1 (InsP) [1]: 13 fold
- Agonist EC50 (activating phase, InsP formation) [10]: 180 nM
- Agonist Efficacy (% of full response to extracellular agonist) [10]: 90%
- Agonist IC50 (inhibitory phase, InsP formation) [10]: 6500 nM

From patent publication US7696168 (TUFTS MEDICAL CENTER, dated 2010)
